{
  "source": "IntAct's records for PubMed 35512704",
  "parents": {"B1": {"name": "Mothers against decapentaplegic homolog 4 (Homo sapiens), Q13485 (parent)", "chain": "MDNMSITNTPTSNDACLSIVHSLMCHRQGGESETFAKRAIESLVKKLKEKKDELDSLITAITTNGAHPSKCVTIQRTLDGRLQVAGRKGFPHVIYARLWRWPDLHKNELKHVKYCQYAFDLKCDSVCVNPYHYERVVSPGIDLSGLTLQSNAPSSMMVKDEYVHDFEGQPSLSTEGHSIQTIQHPPSNRASTETYSTPALLAPSESNATSTANFPNIPVASTSQPASILGGSHSEGLLQIASGPQPGQQQNGFTGQPATYHHNSTTTWTGSRTAPYTPNLPHHQNGHLQHHPPMPPHPGHYWPVHNELAFQPPISNHPAPEYWCSIAYFEMDVQVGETFKVPSSCPIVTVDGYVDPSGGDRFCLGQLSNVHRTEAIERARLHIGKGVQLECKGEGDVWVRCLSDHAVFVQSYYLDREAGRAPGDAVHKIYPSAYIKVFDLRQCHRQMQQQAATAQAAAAAQAAAVAGNIPGPGSVGGIAPAISLSAAAGIGVDDLRRLCILRMSFVKGWGPDYPRQSIKETPCWIEIHLHRALQLLDEVLHTMPIADPQPLD"}},
  "data": [
    {"variants_of": "B1", "settings": "with keap1_human KEAP1, Q14145", "values": [
      {"variant": "D351H", "effect of a mutation on the interaction": "with no effect"}
    ]},
    {"variants_of": "B1", "settings": "with klf4_human KLF4, O43474", "values": [
      {"variant": "D351H", "effect of a mutation on the interaction": "with no effect"}
    ]},
    {"variants_of": "B1", "settings": "with maga6_human MAGEA6, P43360", "values": [
      {"variant": "D351H", "effect of a mutation on the interaction": "with no effect"}
    ]},
    {"variants_of": "B1", "settings": "with mp2k7_human MAP2K7, O14733", "values": [
      {"variant": "D351H", "effect of a mutation on the interaction": "with no effect"}
    ]},
    {"variants_of": "B1", "settings": "with m3k1_human MAP3K1, Q13233", "values": [
      {"variant": "D351H", "effect of a mutation on the interaction": "with no effect"}
    ]},
    {"variants_of": "B1", "settings": "with mk10_human MAPK10, P53779", "values": [
      {"variant": "D351H", "effect of a mutation on the interaction": "with no effect"}
    ]},
    {"variants_of": "B1", "settings": "with mk14_human MAPK14, Q16539", "values": [
      {"variant": "D351H", "effect of a mutation on the interaction": "with no effect"}
    ]},
    {"variants_of": "B1", "settings": "with mk03_human MAPK3, P27361", "values": [
      {"variant": "D351H", "effect of a mutation on the interaction": "with no effect"}
    ]},
    {"variants_of": "B1", "settings": "with mk04_human MAPK4, P31152", "values": [
      {"variant": "D351H", "effect of a mutation on the interaction": "with no effect"}
    ]},
    {"variants_of": "B1", "settings": "with mk06_human MAPK6, Q16659", "values": [
      {"variant": "D351H", "effect of a mutation on the interaction": "with no effect"}
    ]},
    {"variants_of": "B1", "settings": "with mcl1_human MCL1, Q07820", "values": [
      {"variant": "D351H", "effect of a mutation on the interaction": "with no effect"}
    ]},
    {"variants_of": "B1", "settings": "with mitf_human MITF", "values": [
      {"variant": "D351H", "effect of a mutation on the interaction": "with no effect"}
    ]},
    {"variants_of": "B1", "settings": "with myc_human MYC", "values": [
      {"variant": "D351H", "effect of a mutation on the interaction": "with no effect"}
    ]},
    {"variants_of": "B1", "settings": "with nck2_human NCK2, O43639", "values": [
      {"variant": "D351H", "effect of a mutation on the interaction": "with no effect"}
    ]},
    {"variants_of": "B1", "settings": "with nf1_human NF1, P21359", "values": [
      {"variant": "D351H", "effect of a mutation on the interaction": "with no effect"}
    ]},
    {"variants_of": "B1", "settings": "with merl_human NF2, P35240", "values": [
      {"variant": "D351H", "effect of a mutation on the interaction": "with no effect"}
    ]},
    {"variants_of": "B1", "settings": "with nfic_human NFIC", "values": [
      {"variant": "D351H", "effect of a mutation on the interaction": "with no effect"}
    ]},
    {"variants_of": "B1", "settings": "with notc2_human NOTCH2, Q04721", "values": [
      {"variant": "D351H", "effect of a mutation on the interaction": "with no effect"}
    ]},
    {"variants_of": "B1", "settings": "with ntrk2_human NTRK2, Q16620", "values": [
      {"variant": "D351H", "effect of a mutation on the interaction": "with no effect"}
    ]},
    {"variants_of": "B1", "settings": "with ntrk3_human NTRK3, Q16288", "values": [
      {"variant": "D351H", "effect of a mutation on the interaction": "with no effect"}
    ]},
    {"variants_of": "B1", "settings": "with pak3_human PAK3, O75914", "values": [
      {"variant": "D351H", "effect of a mutation on the interaction": "with no effect"}
    ]},
    {"variants_of": "B1", "settings": "with prkn_human PRKN", "values": [
      {"variant": "D351H", "effect of a mutation on the interaction": "with no effect"}
    ]},
    {"variants_of": "B1", "settings": "with pax5_human PAX5, Q02548", "values": [
      {"variant": "D351H", "effect of a mutation on the interaction": "with no effect"}
    ]},
    {"variants_of": "B1", "settings": "with pax9_human PAX9, P55771", "values": [
      {"variant": "D351H", "effect of a mutation on the interaction": "with no effect"}
    ]},
    {"variants_of": "B1", "settings": "with pcbp1_human PCBP1, Q15365", "values": [
      {"variant": "D351H", "effect of a mutation on the interaction": "with no effect"}
    ]},
    {"variants_of": "B1", "settings": "with pgfra_human PDGFRA", "values": [
      {"variant": "D351H", "effect of a mutation on the interaction": "with no effect"}
    ]},
    {"variants_of": "B1", "settings": "with pgfrb_human PDGFRB", "values": [
      {"variant": "D351H", "effect of a mutation on the interaction": "with no effect"}
    ]},
    {"variants_of": "B1", "settings": "with pdk1_human PDK1, Q15118", "values": [
      {"variant": "D351H", "effect of a mutation on the interaction": "with no effect"}
    ]},
    {"variants_of": "B1", "settings": "with PIK3C2B", "values": [
      {"variant": "D351H", "effect of a mutation on the interaction": "with no effect"}
    ]},
    {"variants_of": "B1", "settings": "with pk3c3_human PIK3C3, Q8NEB9", "values": [
      {"variant": "D351H", "effect of a mutation on the interaction": "with no effect"}
    ]},
    {"variants_of": "B1", "settings": "with pk3ca_human PIK3CA", "values": [
      {"variant": "D351H", "effect of a mutation on the interaction": "with no effect"}
    ]},
    {"variants_of": "B1", "settings": "with pk3cb_human PIK3CB", "values": [
      {"variant": "D351H", "effect of a mutation on the interaction": "with no effect"}
    ]},
    {"variants_of": "B1", "settings": "with pk3cg_human PIK3CG", "values": [
      {"variant": "D351H", "effect of a mutation on the interaction": "with no effect"}
    ]},
    {"variants_of": "B1", "settings": "with p85a_human PIK3R1, P27986", "values": [
      {"variant": "D351H", "effect of a mutation on the interaction": "with no effect"}
    ]},
    {"variants_of": "B1", "settings": "with p85b_human PIK3R2, O00459", "values": [
      {"variant": "D351H", "effect of a mutation on the interaction": "with no effect"}
    ]},
    {"variants_of": "B1", "settings": "with dpod1_human POLD1, P28340", "values": [
      {"variant": "D351H", "effect of a mutation on the interaction": "with no effect"}
    ]},
    {"variants_of": "B1", "settings": "with dpoe1_human POLE", "values": [
      {"variant": "D351H", "effect of a mutation on the interaction": "with no effect"}
    ]},
    {"variants_of": "B1", "settings": "with lipa1_human PPFIA1, Q13136", "values": [
      {"variant": "D351H", "effect of a mutation on the interaction": "with no effect"}
    ]},
    {"variants_of": "B1", "settings": "with 2aaa_human PPP2R1A", "values": [
      {"variant": "D351H", "effect of a mutation on the interaction": "with no effect"}
    ]},
    {"variants_of": "B1", "settings": "with prdm1_human PRDM1, O75626", "values": [
      {"variant": "D351H", "effect of a mutation on the interaction": "with no effect"}
    ]},
    {"variants_of": "B1", "settings": "with aapk2_human PRKAA2, P54646", "values": [
      {"variant": "D351H", "effect of a mutation on the interaction": "with no effect"}
    ]},
    {"variants_of": "B1", "settings": "with prss8_human PRSS8, Q16651", "values": [
      {"variant": "D351H", "effect of a mutation on the interaction": "with no effect"}
    ]},
    {"variants_of": "B1", "settings": "with ptk6_human PTK6, Q13882", "values": [
      {"variant": "D351H", "effect of a mutation on the interaction": "with no effect"}
    ]},
    {"variants_of": "B1", "settings": "with tf65_human RELA", "values": [
      {"variant": "D351H", "effect of a mutation on the interaction": "with no effect"}
    ]}
  ]
}
